B1: WT-hTSH (wild-type recombinant human thyroid stimulating hormone) (ligand)
chain 1: not shown
chain 2: FCIPTEYTMHIERRECAYCLTINTTICAGYCMTRDINGKLFLPKYALSQDVCTYRDFIYRTVEIPGCPLHVAPYFSYPVALSCKCGKCNTDYSDCIHEAIKTNYCTKPQKSY
B2: WT-hCG (wild-type recombinant human chorionic gonadotropin) (ligand)
chain 1: not shown
chain 2: SKEPLRPRCRPINATLAVEKEGCPVCITVNTTICAGYCPTMTRVLQGVLPALPQVVCNYRDVRFESIRLPGCPRGVNPVVSYAVALSCQCALCRRSTTDCGGPKDHPLTCDDPRFQDSSSSKAPPPSLPSPSRLPGPSDTPILPQ

Legend:
[1] = target: human TSH receptor on CHO cells (CHO-hTSHR clone JP09) (human, UniProt P16473 21-764); experiment: cell-based or functional assay
[2] = target: hCG receptor on MA-10 cells (transformed murine Leydig cells) (murine, UniProt P30730 27-700); experiment: cell-based or functional assay
Chain of hCG receptor on MA-10 cells (transformed murine Leydig cells) (P30730 27-700): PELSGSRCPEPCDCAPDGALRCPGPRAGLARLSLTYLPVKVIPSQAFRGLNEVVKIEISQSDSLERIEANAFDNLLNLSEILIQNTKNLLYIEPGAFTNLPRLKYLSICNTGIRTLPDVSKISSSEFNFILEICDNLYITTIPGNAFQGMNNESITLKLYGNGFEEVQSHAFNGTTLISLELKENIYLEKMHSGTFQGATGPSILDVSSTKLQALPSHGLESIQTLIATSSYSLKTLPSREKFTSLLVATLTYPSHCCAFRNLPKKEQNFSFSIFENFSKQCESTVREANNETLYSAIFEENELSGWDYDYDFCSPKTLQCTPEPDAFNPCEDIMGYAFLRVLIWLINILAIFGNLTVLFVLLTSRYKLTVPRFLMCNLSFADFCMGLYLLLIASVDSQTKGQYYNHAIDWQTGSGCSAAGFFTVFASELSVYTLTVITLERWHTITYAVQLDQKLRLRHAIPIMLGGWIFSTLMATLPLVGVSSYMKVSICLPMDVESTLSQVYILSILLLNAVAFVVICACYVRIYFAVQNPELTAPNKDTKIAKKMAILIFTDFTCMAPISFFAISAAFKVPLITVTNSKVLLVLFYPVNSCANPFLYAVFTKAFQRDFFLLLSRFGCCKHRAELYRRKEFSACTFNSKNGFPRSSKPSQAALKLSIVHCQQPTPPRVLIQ

Binder | cAMP stimulation in JP09 cells, EC50 [1] | cAMP stimulation in JP09 cells, relative potency (WT=1) [1] | Progesterone synthesis in MA 10 cells, EC50 [2]
B1 | 6.7 ng/mL | 1 fold (WT=1) | 
B2 |  |  | 6.9 ng/mL

Reference: patent EP1947117A2 (THE UNITED STATES GOVERNMENT as represented by THE …, dated 2008)
